The record followed here is patent publication US20240360224A1 (ORIONIS BIOSCIENCES, published 2024).

Where a chain is given by its changes, count along the chain named.

Sequences and labels used below:
B1: 3LEC 66 (VHH)
VHH: QVQLQESGGGLVQPGGSLRLSCAASRSFFSFNAMGWYRQAPGKQRELVAAITNGGRIAYGTSVMGRFTISRDNAKNTVYLQMDSLKPEDTAVYYCNAKPAPVYGSTVGDYWGQGTQVTVSS
notes: Entry includes C-terminal AAA-HA-His6 (pMECS)
B2: 2LEC 59 (VHH)
VHH: B1 VHH with A24V, S27N, F31I, N73D, Y79D, D83N, K86R, P99A, A100I, G108E
notes: as for B1
B3: 1LEC 28 (VHH)
VHH: QVQLQESGGGLVQSGGSLRLSCAASGSVFSINAWGWYRQAPGKQRELVAAITNQGRIAYAPSVNGRFTISRDSAKNTVYLQMNSLKPEDTAVYYCNAKPTPVYGSTVGDYWGQGTQVTVSS
notes: as for B1
B4: 2LEC 16 (VHH)
VHH: B1 VHH with A23L, F29S, Q44E, T61I, S62A, M64N, D83N, A100T
notes: as for B1
B5: 2LEC 6 (VHH)
VHH: QVQLQESGGGWVQPGGSLRLSCAATGSIVSINAIGWYRQAPGKQRELVASITNQGIRNYSTSVMGRFTISRDDVKNTVSLQMNSLKPEDSAVYYCKGFAGWGKEDYWGQGTQVTVSS
notes: as for B1
B6: 1LEC 88 (VHH)
VHH: QVQLQESGGGLVQPGGSLRLSCAAIGNIASITAMGWYRQAPGKQRELVAAITSASASRTTYADSVKGRFTISRDNAKNTVYLQMNSLQPEDTAVYYCKGFRSGADDYWGQGTQVTVSS
notes: as for B1
B7: 2LEC 93 (VHH)
VHH: QVQLQESGGGLVQAGGSLRLSCAASGSIFSINAMGWYRPALGEQRELVAAITTGGRTTYVDSVKGRFSISRDNAKNTVYLQMNSLKPEDTAVYFCKAFTRDEDFWGQGTQVTVSS
notes: as for B1
B8: 2LEC 53 (VHH)
VHH: B7 VHH with F29D, T58A, S68T, N73A, F94S, E102T, F104Y
notes: as for B1
B9: 1LEC 63 (VHH)
VHH: QVQLQESGGGLVQAGGSLRLSCAATGDISSINAMGWHRPARGNERELVAAITNGGRTTYVDSVKGRFTISRDNAKNTVYLQMNSLKPEDTAVYFCKAYTRDEDYWGQGTQVTVSS
notes: as for B1
B10: 1LEC 30 (VHH)
VHH: B7 VHH with F29L, A33S, E43N, T53N, G54D, S68T, F94W, E102K, F104Y
notes: as for B1
B11: 1LEC 7 (VHH)
VHH: QVQLQESGGGLVQPGGSLRLSCAASGRISSINSMGWYRQAPGNQRELVAAITNGGAKTYADSVKGRFTISTDNAGNTVYLQMDSLRPEDTAVYYCKAFTRRDDYWGQGTQITVSS
notes: as for B1
B12: 2LEC 68 (VHH)
VHH: B11 VHH with G16E, R27S, S29F, S33A, N43K, N53D, R101G, D102N, I111V
notes: as for B1
B13: 1LEC 42 (VHH)
VHH: QVQLQESGGGLVQPGGSLRLSCAASGRVFSINAMGWYRQAPGKQRELVAAITNQGATTYADSVKGRFTISRDTAGNTVYLQMNSLRPEDTAVHYCKAFTRTDDYWGQGTQVTVSS
notes: as for B1
B14: 2LEC 38 (VHH)
VHH: B13 VHH with V28I, S30D, Q54G, A56Q, T73N, H93Y, T101S
notes: as for B1
B15: 3LEC 57 (VHH)
VHH: B11 VHH with N43K, T71R, N73G, S84N, R101T, D102Y, I111V
notes: as for B1
B16: 3LEC 36 (VHH)
VHH: QVQLQESGGGLVQPGGSLRLSCAASGRIGSINSMGWYRQAPGKQREMVAAITNGGATVYADSVKGRFTISRDNAGNTVDLHMNSLRPEDSAVYYCKAFTRGDDYWGQGTQVTVSS
notes: as for B1
B17: 1LEC 62 (VHH)
VHH: QVQLQESGGGLVQPGGFLSLSCAASGSMHSVNSMAWYRQVPGKQRELVAAITSGGRLAYAPSVNGRFTISRDYAKNTIHLQMNSLEPEDTAVYYCAALNSATTYWGQGTQVTVSS
notes: as for B1
B18: 2LEC 54 (VHH)
VHH: QVQLQESGGGLAQPGGSLQLSCAASGRAFSTNSMGWYRQASGKQRELVAAITSQGRITLADSVKGRFTISSDNTKNTVFLQMNSLKPEDTAVYYCNAWTTLGTFGGQGTQVTVSS
notes: as for B1
B19: 3LEC 11 (VHH)
VHH: QVQLQESGGGLVQPGGSLRLSCAASGSISSINAMGWYRQAPGKQRELVAAITGQGRTTYADSVKGRFTISRDGAKNTVYLQMNSLKPEDTAVYYCKVFAADGMEYWGKGTQVTVSS
notes: as for B1
B20: 1LEC 92 (VHH)
VHH: B19 VHH with K43N, G53N, T57V, D101S
notes: as for B1
B21: 3LEC 69 (VHH)
VHH: QVQLQESGGGLVQPGGSPRLSCAASGRFFRVNAMGWYRQAPGKQRELVAAITNGGQTAYADSVKGRFTISRDSAKNTVYLQMNSLKSEDTAVYYCKVFAADGMEYWGKGTQVTVSS
notes: as for B1
B22: 2LEC 23 (VHH)
VHH: QVQLQESGGGLVQPGGSLRLSCAASGTSFSINGMAWYRQAPGGQRELVGGITSDGSTGYADSVKGRFTVSRDNAKNTVYLQMNRLKPEDTAVYYCGTSTPRGDSYWGQGTQVTVSS
notes: as for B1
B23: 2LEC 48 (VHH)
VHH: B22 VHH with P14A, S28L, G43K, Q44R, V69I, V78A, R84S
notes: as for B1
B24: 2LEC 90 (VHH)
VHH: QVQLQESGGGLVQTGGSLRLSCAASGSIFSFNAMGWYRQAPGKQRELVAAITDGGRLTYADSAKGRFTISRENTRNTVHLQMSSLKAEDTADYYCTIWTRDRQQYWGQGTQVTVSS
notes: as for B1
B25: 3LEC 55 (VHH)
VHH: B24 VHH with T14P, R19K, G65N, D92V, R100K
notes: as for B1
B26: 2LEC 26 (VHH)
VHH: B24 VHH with Q13E, F31I, G54Q, T58A, T74A, V78L, D92V, T99D
notes: as for B1
B27: 3LEC 30 (VHH)
VHH: QVQLQESGGGLVQTGGSLRLSCAASGSIFSINSMGWYRQAPGKQRELVAAITSQGRSTYADSAKGRFTISLGNARNTVNLQMSSLKTEDTAVYYCTIWARDRQQYWGQGTQVTVSS
notes: as for B1
B28: 2LEC 55 (VHH)
VHH: QVQLQESGGGLVQTGESLSLSCAVASGSIISINSMGWYRQAPEKQRELVAAITVDGRLAYADSAKHRFTISKESARNTVHLHMSSLKPEDTAVYYCTIWVRDGQQYWGQGTQVTVSS
notes: as for B1
B29: 1LEC 70 (VHH)
VHH: QVQLQESGGGLVQPGGSLRLSCAASGSIFSINAMGWYRQAPGKQRELVAAITNQGRLTYADSVKGRFTISRDNAKNTVFLQMDSLKPEDTAVYYCNAKWYDPLVIEYYDNWGQGTQVTVSS
notes: as for B1
B30: 1LEC 9 (VHH)
VHH: QVQLQESGGGLVQAGGSLRLSCAASGSITSINAMGWYRQAPGKQRELVAAITSGGRLSYADSVKGRFTISRDNAESTVALQMNSLKPEDTAVYSCAAFQSSGIDWGQGTQVTVSS
notes: as for B1
B31: 2LEC 13 (VHH)
VHH: QVQLQESGGGLVQAGASLRLSCAASGSIFSINAMGWYRQAPGKQRELVAAITNQGRTTYADSVKGRFTISRDNAKNTVYLQMDSLEPEDTAIYYCKGFSPTGDYWGQGTQVTVSS
notes: as for B1
B32: 1LEC 91 (VHH)
VHH: QVQLQESGGGLVQPGGSLRLSCAASGFTFDDYAIGWFRQAPGKEHEGVSCISRSDGSTYYDDSVKGRFTISSDNAKNTVYLQMNSLKPEDTAVYYCAAEVPSTYSCSGFREDYKGKGTQVTVSS
notes: as for B1
B33: 1LEC 84 (VHH)
VHH: QVQLQESGGGLVQPGGSLRLSCAASGSIFSIAAMGWYRQAPGKQRELVAAITSGGRRAYADSVKGRFTISRDNDENTVALQMNSLKPEDTDVYYCNAKADHNDYWGQGTQITVSS
notes: as for B1
B34: 2LEC 60 (VHH)
VHH: QVQLQESGGGLVQPGGSLRLSCAASGRFFRVNAMGWYRQVPGKQRELVAAITNGGQIAYADSVKGRFTISRDSAKNTVYLQMNSLKSEDTDVYYCNAKAAATHLSTVADYWGQGTQVTVSS
notes: as for B1

The assay deals with T1, human Clec9A (human, UniProt Q6UXN8 1-241).
T1 construct: Expressed on transfected CHO-K1, HEK293-T and HL116 cells, or native on human dendritic cells; also called hClec9A; C-type lectin domain family 9 member A
T1 sequence (Q6UXN8 whole entry, the tested form may be a part): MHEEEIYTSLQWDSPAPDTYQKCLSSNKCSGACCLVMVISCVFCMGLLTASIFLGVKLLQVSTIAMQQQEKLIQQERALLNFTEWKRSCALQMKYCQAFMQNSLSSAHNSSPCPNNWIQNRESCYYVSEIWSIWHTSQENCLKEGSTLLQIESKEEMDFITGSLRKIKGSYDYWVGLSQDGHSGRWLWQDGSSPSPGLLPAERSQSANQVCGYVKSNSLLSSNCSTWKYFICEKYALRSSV
Briefly: flow cytometry on HEK293-T cells transfected with human Clec9A; His-tagged VHH at 2 µg/ml, anti-His FITC antibody; single concentration. The procedure:
The binding characteristics of various VHHs (as described in Example 1) were tested by flow cytometry. HEK293-T cells were transfected with a human Clec9A expression plasmid and stained with the His-tagged VHHs at 2 μg/ml, followed by staining with an anti-His Fitc conjugated antibody. Binding was measured by detecting cellular fluorescence via flow cytometry.
A general note: Flow cytometry measures light scatter and fluorescence of single cells or particles in a stream.
On to B1, for which the binding result is reported as “binds”. With B2 the entry was “binds”; with B3, “binds”.

Consider B4, for which the binding result is “binds”. Then B5, with “binds”. Then B6, with “binds”; and B7, with “binds”; and B8, with “binds”. Then B9, with “binds”; and B10, with “binds”; and B11, with “binds”. With B12, the binding result was “binds”.

On to B13, for which the binding result is given as “binds”. B14: the binding result was “binds”. Then B15, with “binds”; and B16, with “binds”; and B17, with “binds”. Then B18, with “binds”. Then B19, with “binds”; and B20, with “binds”; and B21, with “binds”.

In the case of B22, the binding result is listed as “binds”. Then B23, with “binds”; and B24, with “binds”. Then B25, with “binds”; and B26, with “binds”; and B27, with “binds”. With B28 the entry was “binds”; with B29, “binds”. As for B30, the binding result was “binds”. With B31 the entry was “binds”; with B32, “binds”. With B33 the entry was “binds”; with B34, “binds”.
